Experimental data published in PMC2923608, “Structural Insights into the Quinolone Resistance Mechanism of Mycobacterium tuberculosis DNA Gyrase” (PLoS ONE, 2010).

B1: breakage-reunion domain of DNA gyrase subunit A from M. tuberculosis (GA57BK) (domain or fragment)
chain: MTDTTLPPDDSLDRIEPVDIEQEMQRSYIDYAMSVIVGRALPEVRDGLKPVHRRVLYAMFDSGFRPDRSHAKSARSVAETMGNYHPHGDASIYDSLVRMAQPWSLRYPLVDGQGNFGSPGNDPPAAMRYTEARLTPLAMEMLREIDEETVDFIPNYDGRVQEPTVLPSRFPNLLANGSGGIAVGMATNIPPHNLRELADAVFWALENHDADEEETLAAVMGRVKGPDFPTAGLIVGSQGTADAYKTGRGSIRMRGVVEVEEDSRGRTSLVITELPYQVNHDNFITSIAEQVRDGKLAGISNIEDQSSDRVGLRIVIEIKRDAVAKVVINNLYKHTQLQTSFGANMLAIVDGVPRTLRLDQLIRYYVDHQLDVIVRRTTYRLRKANERAHILRGLVKALDALDEVIALIRASETVDIARAGLIELLDIDEIQAQAILDMQLRRLAALERQRIIDDLAKIEAEIADLEDILAKPERQRGIVRDELAEIVDRHGDDRRTRIIAAD
notes: DNA gyrase subunit A (GyrA), Mycobacterium tuberculosis, breakage-reunion domain, residues 1-502, 57 kDa; also called entire N-terminal GyrA domain
B2: Toprim domain of DNA gyrase subunit B from Mycobacterium tuberculosis (TopBK) (domain or fragment)
chain: TDPRKSELYVVEGDSAGGSAKSGRDSMFQAILPLRGKIINVEKARIDRVLKNTEVQAIITALGTGIHDEFDIGKLRYHKIVLMADADVDGQHISTLLLTLLFRFMRPLIENGHVFLAQPPLYKLKWQRSDPEFAYSDRERDGLLEAGLKAGKKINKEDGIQRYKGLGEMDAKELWETTMDPSVRVLRQVTLDDAAAADELFSILMGEDVDARRSFITRNAKDVRFLDV
notes: DNA gyrase subunit B (GyrB), Mycobacterium tuberculosis, Toprim domain; the methods give residues 448-675, the results give 448-654 (the crystal model runs from T448 to E654); also called C-terminal GyrB domain

Experiments:
[1] = target: the molecule itself; test: AUC; sedimentation velocity, 20°C, 42000 rpm, 20 mM Tris pH 8; GA57BK at 1 mg/ml (17.5 µM)
[2] = target: the molecule itself; test: AUC; sedimentation velocity, 20°C, 42000 rpm, 20 mM Tris pH 8; TopBK at 0.5, 1 and 4 mg/ml (18, 37 and 148 µM); the result is told for the concentration corresponding to the crystallization conditions; monomer and dimer

| Protein | stoichiometry N [1] | stoichiometry N [2] |
| --- | --- | --- |
| B1 | 2 |  |
| B2 |  | 2 |
